Residue numbers refer to the chain shown, from its start. Several values for one entry are separate records, joined by “and”; a condition that tells them apart may be missing. Equal entries are not always repeated. Where two headings read alike, the source gives them in different places.
T1: recombinant Fc-KAAG1 fusion protein (full-length KAAG1) (human, UniProt Q9UBP8 1-84, biotinylated with NHS-biotin (sites not given))
T1 construct: also called recombinant human KAAG1; not shown: human Fc domain encoded by expression plasmid pYD5; vector-encoded residues between the Fc and the BamHI cloning site of pYD5
T1 sequence: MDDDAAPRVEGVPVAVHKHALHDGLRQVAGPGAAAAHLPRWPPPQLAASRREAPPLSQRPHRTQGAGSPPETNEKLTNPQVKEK

T2: monomeric recombinant KAAG1 (Homo sapiens (Human), UniProt Q9UBP8 1-84, limits assumed)
T2 construct: Analyte of the Biacore experiment
T2 sequence: T1 sequence

T3: KAAG1 (Kidney associated antigen 1), endogenous, on cancer cells and in tumour tissue (human, UniProt Q9UBP8 1-84)
T3 construct: also called KAAG1 antigen
T3 sequence: T1 sequence

T4: Fc-fused truncated mutant of KAAG1 spanning amino acids 1-35 (human)
T4 construct: also called truncated mutant of KAAG1 1-35; first 35 amino acids of KAAG1; not shown: human Fc domain encoded by expression plasmid pYD5; vector-encoded residues between the Fc and the BamHI cloning site of pYD5
T4 chain: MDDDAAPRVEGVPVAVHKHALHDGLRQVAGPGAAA

B1: Fab of well E10 (Omniclonal AL0003Z1 plate) (Fab, V domains shown)
VH: EVQLQQSGPELVKPGASVKISCKASGDTFTDYYMNWVKQSHGKSLEWIGDINPNYGGITYNQKFKGKATLTVDTSSSTAYMELRGLTSEDSAVYYCQAYYRNSDYWGQGTTLTVSS
VL: DIVMTQAAPSVPVTPGESVSISCRSSKSLLHSNGNTYLYWFLQRPGQSPQLLIYRMSNLASGVPDRFSGSGSGTAFTLRISRVEAEDVGVYYCMQHLEYPYTFGGGTKLEIK
B2: G8 (Fab, V domains shown)
VH: QVQLKQSGAELVRPGASVTLSCKASGYTFTDYEVHWVKQTPVHGLEWIGVIDPATGDTAYNQKFKGKATLTADKSSSTAYMEVSSLTSEDSAVYYCMGYSDYWGQGTTLTVSS
VL: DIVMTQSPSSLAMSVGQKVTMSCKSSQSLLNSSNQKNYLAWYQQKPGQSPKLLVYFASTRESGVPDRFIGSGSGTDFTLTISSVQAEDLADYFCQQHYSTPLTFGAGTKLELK
notes: also called Fab of well G8
B3: C3 (Fab, V domains shown)
VH: EVQLQQSVAEVVRPGASVTLSCKASGYTFTDYEIHWVKQTPVHGLEWIGVIDPETGVTAYNQRFRDKATLTTDKSSSTAYMELSSLTSEDSAVYFCMGYSDYWGQGTTLTVSS
VL: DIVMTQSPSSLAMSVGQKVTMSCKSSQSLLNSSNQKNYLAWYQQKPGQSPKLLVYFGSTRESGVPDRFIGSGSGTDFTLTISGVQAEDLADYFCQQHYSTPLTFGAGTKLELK
notes: also called Fab of well C3
B4: 3D3 mouse-human chimeric IgG1 anti-KAAG1 monoclonal antibody (antibody, V domains shown)
VH: B3 VH with V11L, T28I, V57N, Y60F, R63K, R65K, D66G, T72A, K74I, F95Y
VL: DIVMTQSPSSLAVSIGQKVTMNCKSSQSLLNSNFQKNFLAWYQQKPGQSPKLLIYFASTRESSIPDRFIGSGSGTDFTLTISSVQAEDLADYFCQQHYSTPLTFGAGTKLELKA
notes: Mouse variable regions on human kappa and human IgG1 constant regions, expressed in 293E cells; also called chimeric 3D3; 3D3 chimeric IgG1
B5: 3D3 mouse anti-KAAG1 Fab (Fab, V domains shown)
VH: B3 VH with V11L, T28I, V57N, Y60F, R63K, R65K, D66G, T72A, K74I, F95Y
VL: DIVMTQSPSSLAVSIGQKVTMNCKSSQSLLNSNFQKNFLAWYQQKPGQSPKLLIYFASTRESSIPDRFIGSGSGTDFTLTISSVQAEDLADYFCQQHYSTPLTFGAGTKLELK
notes: Recombinant mouse Fab prepared from E. coli, from Omniclonal AL0003Z1; also called 3D3 Fab
B6: 3D3 hybrid antibody: humanized light chain expressed with the chimeric heavy chain (antibody, V domains shown)
VH: B3 VH with V11L, T28I, V57N, Y60F, R63K, R65K, D66G, T72A, K74I, F95Y
VL: DIVMTQSPDSLAVSLGERATINCKSSQSLLNSNFQKNFLAWYQQKPGQPPKLLIYFASTRESSVPDRFSGSGSGTDFTLTISSLQAEDVAVYYCQQHYSTPLTFGQGTKLEIKR
notes: also called HC
B7: Fab of well C2 (Omniclonal AL0003Z1 plate) (Fab, V domains shown)
VH: DVQLQESGPDLVKPSQSLSLTCTVTGFSITSGYGWHWIRQFPGNKLEWMGYISFNGDSNYNPSLKSRISITRDTSKNQFFLQLNSVTSEDTATYYCASSYDGLFAYWGQGPLVTVSA
VL: DIQMTQSPSSMYASLGERVTLTCKASQDIHNYLNWFQQKPGKSPKTLIHRANRLVAGVPSRFSGSGSGQDYSLTISSLEYEDLGIYYCLQYDAFPLTFGAGTKLELK
B8: 3C4 mouse-human chimeric IgG1 anti-KAAG1 monoclonal antibody (antibody, V domains shown)
VH: B7 VH with D1E, S53N, F54Y, N55D, D57H, S58N, N59D, R72Q, S88T, P111T
VL: DIVMSQSPSSMYASLGERVTITCKASQDIHNFLNWFQQKPGKSPKTLIFRANRLVDGVPSRFSGSGSGQDYSLTISSLEFEDLGIYSCLQYDEIPLTFGAGTKLELRA
notes: Mouse variable regions on human kappa and human IgG1 constant regions, expressed in 293E cells; also called chimeric 3C4
B9: Fab of well D1 (Omniclonal AL0003Z1 plate) (Fab, V domains shown)
VH: B7 VH with D1E, N44D, S58Y, N84S, S88T, P111T
VL: B7 VL with Q3K, L21I, N31T, K45E, H49Y, A56D, L83M, A93E
B10: 3C4 mouse anti-KAAG1 Fab (Fab, V domains shown)
VH: B7 VH with D1E, S53N, F54Y, N55D, D57H, S58N, N59D, R72Q, S88T, P111T
VL: DIVMSQSPSSMYASLGERVTITCKASQDIHNFLNWFQQKPGKSPKTLIFRANRLVDGVPSRFSGSGSGQDYSLTISSLEFEDLGIYSCLQYDEIPLTFGAGTKLELR
notes: Recombinant mouse Fab prepared from E. coli; also called 3C4 Fab; well C4
B11: 3G10 mouse anti-KAAG1 Fab (Fab, V domains shown)
VH: EIQLQQSGPELVKPGASVKISCKASGYTFTDNYMNWVKQSHGKSLEWIGDINPYYGTTTYNQKFKGKATLTVDKSSRTAYMELRGLTSEDSAVYYCARDDWFDYWGQGTLVTVSA
VL: DVLMTQTPRSLSVSLGDQASISCRSSQSLLHSNGNTYLEWYLQKPGQPPKVLIYKVSNRFSGVPDRFSGSGSGTDFTLKISGVEAEDLGVYYCFQGSHVPLTFGAGTKLELK
notes: Recombinant mouse Fab prepared from E. coli; also called 3G10 Fab; well G10
B12: A9 (Fab, V domains shown)
VH: QVQVQQPGAELVRPGASVTLSCKASGYIFTDYEVHWVRQRPVHGLEWIGVIDPETGDTAYNQKFKGKATLTADKSSSTAYMELSSLTAEDSAVYYCIGYADYWGQGTTLTVSS
VL: DIVMTQSPSSLAMSLGQKVTMSCKSSQSLLNSNNQLNYLAWYQQKPGQSPKLLVYFASTRKSGVPDRFIGSGSGTDFTLTITSVQAEDLADYFCQQHFNTPLTFGAGTKLELK
notes: also called Fab of well A9
B13: G12 (Fab, V domains shown)
VH: EVQLQQSVAELVRPGASVTVSCKASGYIFTDYEIHWVKQTPAHGLEWIGVIDPETGNTAFNQKFKGKATLTADISSSTAYMELSSLTSEDSAVYYCMGYSDYWGQGTTLTVSS
VL: DIVMTQSPKFMSTSVGDRVSITCKASQDVGTAVAWYQQKPGQSPELLIYWTSTRHTGVPDRFSGSGSGTDFTLTISSVQAEDLADYFCQQHYSIPLTFGAGTKLELR
notes: also called Fab of well G12

Experiments:
[1] = molecular target: T1, recombinant Fc-KAAG1 fusion protein …; test: ELISA
Description: (§1) The 96-well master plate of monoclonal preparations contained different concentrations of purified anti-KAAG1 Fabs in each well. A second stock master plate was prepared by diluting the Fabs to a final concentration of 10 μg/ml from which all subsequent dilutions were performed for ELISA measurements. To carry out the binding of Fc-KAAG1 to the monoclonal preparations, the Fc-KAAG1 was biotinylated with NHS-biotin (Pierce, Rockford, Ill.) and 10 ng/well was coated in a streptavidin 96-well plate. One nanogram of each Fab monoclonal preparation was added to each well and incubated at room temperature for 30 minutes. Bound antibody was detected with HRP-conjugated mouse anti-kappa light chain antibody in the presence of TMB liquid substrate (Sigma-Aldrich Canada Ltd., Oakville, ON) and readings were conducted at 450 nm in microtiter plate reader.

[2] = molecular target: T1, recombinant Fc-KAAG1 fusion protein …; test: ELISA; remark: listed apart in the source
[3] = molecular target: T2, monomeric recombinant KAAG1; test: SPR (Biacore), antibody captured by anti-human Fc, 1:1 fit
Description: (§2) More precise measurements were conducted using Surface Plasmon Resonance (SPR) in a Biacore instrument. Kinetic analysis was used to compare the affinity of the chimeric 3D3 with the h3D3 as well as with hybrid antibodies encompassing different permutations of the light and heavy chains (see FIG. 18B). Briefly, anti-human Fc was immobilized on the Biacore sensor chip and chimeric or h3D3 was captured on the chip. Different concentrations of monomeric recombinant KAAG1 were injected and the data were globally fitted to a simple 1:1 model to determine the kinetic parameters of the interaction.

[4] = molecular target: T3, KAAG1 (Kidney associated antigen 1), …; test: cell-based ELISA on fixed, non-permeabilised TOV-21G cells
Description: (§3) KAAG1 is expressed on the surface of ovarian cancer cells. […] Following extensive washing of the cells, bound antibody was detected with HRP-conjugated anti-human IgG as a secondary antibody in a modified cell-based ELISA (see FIG. 16A). […] Additionally, the 3D3 antibody produced the strongest signal implying that the epitope targeted by this antibody was the most accessible in this assay. […] A second approach used was flow cytometry. In this case, a mouse 3D3 anti-KAAG1 antibody was incubated with SKOV-3 ovarian cancer cells at saturating conditions and following extensive washing, the bound 3D3 anti-KAAG1 antibody was detected with anti-mouse IgG conjugated to FITC in a flow cytometer.

[5] = molecular target: T3, KAAG1 (Kidney associated antigen 1), …; test: cell-based ELISA on fixed, non-permeabilised OV-90 cells
Description: as §3

[6] = molecular target: T1, recombinant Fc-KAAG1 fusion protein …; test: ELISA on recombinant Fc-KAAG1
Description: as §1
Since an antibody harboring effector functions was required, the h3D3 was assembled as a human IgG₁. ELISA-based assays were performed to directly compare the ability of the h3D3 […]. The methods used to perform these tests were as described in Example 3 using recombinant Fc-KAAG1.

[7] = molecular target: T2, monomeric recombinant KAAG1; test: SPR (Biacore): antibody captured on immobilised anti-human Fc, monomeric recombinant KAAG1 injected, global 1:1 fit; average KD; chimeric 3D3 tabulated as 'm3D3' in FIG. 18B
Description: as §2

[8] = molecular target: T2, monomeric recombinant KAAG1; test: SPR (Biacore): antibody captured on immobilised anti-human Fc, monomeric recombinant KAAG1 injected, global 1:1 fit; average KD; chimeric light + chimeric heavy chain, 'CC' in FIG. 18B
Description: as §2

[9] = molecular target: T1, recombinant Fc-KAAG1 fusion protein …; test: ELISA on Fc-KAAG1
Description: as §1
Expression of human IgG1s in 293E cells—The expression vectors prepared above that encoded the light and heavy chain immunoglobulins were expressed in 293E cells using the transient transfection system (Durocher et al., 2002). The methods used for co-transfecting the light and heavy chain expression vectors were described in Example 3. […] The ability of the chimeric anti-KAAG1 monoclonal antibodies to bind to recombinant Fc-KAAG1 was measured in the ELISA and compared with the original mouse Fabs. The method was described in Example 3. […]

[10] = molecular target: T5, biotinylated Fc domain (UniProt P01857-1 104-330 = IgG part, limits assumed, biotinylated); test: ELISA, biotinylated Fc domain on streptavidin plate, Fab detected with HRP anti-kappa
T5 construct: domain: Fc domain; Control antigen of the Fab ELISA; also called Fc domain (control)
Description: as §1

[11] = molecular target: T2, monomeric recombinant KAAG1; test: SPR (Biacore): antibody captured on immobilised anti-human Fc, monomeric recombinant KAAG1 injected, global 1:1 fit; average KD; humanized light + chimeric heavy chain, 'HC'
Description: as §2

[12] = molecular target: T4, Fc-fused truncated mutant of KAAG1 …; test: ELISA

Row | Binder | OD450 [1] | OD450 [2] | binding result [10] | OD450 [12] | further results
1 | B1 | 0.02 | 0.02 |  |  | 
2 | B2 | 1.72 | 1.72 |  |  | 
3 | B3 | 1.04 | 1.04 |  |  | 
4 | B4 |  |  |  |  | Ka [3]: 4.5e+09 M⁻¹ and 2.71e+09 M⁻¹; Kd [3]: 368 pM; koff [3]: 0.00065 s⁻¹ and 0.00073 s⁻¹; kon [3]: 2.91e+06 M⁻¹ s⁻¹ and 1.98e+06 M⁻¹ s⁻¹; EC50 (read off the curve) [4]: ~0.6 µg/mL; EC50 (read off the curve) [5]: ~0.9 µg/mL; EC50 (read off the curve) [6]: ~0.4 µg/mL; Kd [7]: 235 pM; Kd [8]: 271 pM
5 | B5 | 1.21 | 1.21 | no binding |  | EC50 (read off the curve) [9]: ~0.5 µg/mL
6 | B6 |  |  |  |  | Ka [3]: 3.24e+09 M⁻¹; koff [3]: 0.00073 s⁻¹; kon [3]: 2.36e+06 M⁻¹ s⁻¹; Kd [11]: 309 pM
7 | B7 | 0.32 | 0.32 | no binding | 1.97 | 
8 | B8 |  |  |  |  | EC50 (read off the curve) [5]: ~0.6 µg/mL
9 | B9 | 0.15 | 0.15 | no binding | 1.21 | 
10 | B10 | 0.25 | 0.25 | no binding | 1.93 | 
11 | B11 | 2.78 | 2.78 | no binding |  | 
12 | B12 | 1.53 | 1.53 |  | 0.1 | 
13 | B13 | 1.38 | 1.38 |  |  | 
